Biological target: synthetic peptide …[pT]ISDSAPSR (human)
Assay: bead array incubated with the synthetic peptide in digested BSA; bound peptide by MS, peptide left in the sample by dot blot

Chain of synthetic peptide …[pT]ISDSAPSR (human) (peptide, as listed by the source): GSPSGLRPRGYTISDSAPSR

Q: For “Rabbit monoclonal antibody recognizing phosphorylated Thr1462 in human Tuberin (TSC2), Cell Signaling Technology catalog number 3617 (5B12)”, which binding capacity of a bead array of 5 identical reactive sites, each with 5% of the #3617 antibody is on record?
A: Its binding capacity of a bead array of 5 identical reactive sites, each with 5% of the #3617 antibody is < 15 % of 1 pmol.
